Reference: patent US20050100540A1, “Platelet-activating factor acetylhydrolase” (priority 1993, published 2005)

How the values were obtained:
[1] = PAF-AH activity of E. coli constructs with extended amino termini (lysate, media); type: biochemical; settings: trp promoter
Procedure: PAF-AH activity in transfectant supernatants was determined by the method of Stafforini et al. (1990), supra, with the following modifications. Briefly, PAF-AH activity was determined by measuring the hydrolysis of ^3H-acetate from [acetyl-^3H) PAF (New England Nuclear, Boston, Mass.). The aqueous free ^3H-acetate was separated from labeled substrate by reversed-phase column chromatography over octadecylsilica gel cartridges (Baker Research Products, Phillipsburg, Pa.). Assays were carried out using 10 μl transfectant supernatant in 0.1M Hepes buffer, pH 7.2, in a reaction volume of 50 μl. A total of 50 pmoles of substrate were used per reaction with a ratio of 1:5 labeled: cold PAF. Reactions were incubated for 30 minutes at 37° C. and stopped by the addition of 40 μl of 10M acetic acid. The solution was then washed through the octadecylsilica gel cartridges which were then rinsed with 0.1M sodium acetate. The aqueous eluate from each sample was collected and counted in a liquid scintillation counter for one minute. Enzyme activity was expressed in counts per minute.
and encompassed the termination codon of sAH 406-3 and contained an EcoRV cloning site. PCR reactions were performed essentially as described in Example 3. The resulting PCR product was digested with XbaI and EcoRV and subcloned into a pBR322 vector containing the Trp promoter [deBoer et al., PNAS. 80:21-25 (1983)] immediately upstream of the cloning site. E. coli strain XL-1 Blue was transformed with the expression construct and cultured in L broth containing 100 μg/ml of carbenicillin. Transformants from overnight cultures were pelleted and resuspended in lysis buffer containing 50 mM Tris-HCl pH 7.5, 50 mM NaCl, 10 mM CHAPS, 1 mM EDTA, 100 μg/ml lysozyme, and 0.05 trypsin-inhibiting units (TIU)/ml Aprotinin. Following a 1 hour incubation on ice and sonication for 2 minutes, the lysates were assayed for PAF-AH activity by the method described in Example 4. E. coli transformed with the expression construct (designated trp AH) generated a product with PAF-AH activity.
Several E. coli expression constructs were also evaluated which produce PAF-AH with extended amino termini. The N-terminus of natural plasma PAF-AH was identified as Ile42 by amino acid sequencing (Example 2). […] Acids Res., 14:4683-4690 (1986)]. Presumably a more classical signal sequence (M1-A17) is recognized by the cellular secretion system, followed by endoproteolytic cleavage. The entire coding sequence for PAF-AH beginning at the initiating methionine (nucleotides 162 to 1487 of SEQ ID NO: 7) was engineered for expression in E. coli using the trp promoter. […] Another expression construct, beginning at Val18 (nucleotides 213 to-1487 of SEQ ID NO: 7), produced active PAF-AH at about one third the level of the original construct.

PAF-induced foot edema = experiment: PAF-induced rat foot edema model; type: in vivo
Procedure: Six to eight-week-old female Long Evans rats (Charles River, Wilmington, Mass.), weighing 180-200 grams, were used for all experiments. Prior to experimental manipulations, animals were anesthetized with a mixture of the anesthetics Ketaset (Fort Dodge laboratories, Fort Dodge, Iowa), Rompun (Miles, Shawnee Mission, Kans.), and Ace Promazine (Aveco, Fort Dodge, Iowa) administered subcutaneously at approximately 2.5 mg Ketaset, 1.6 mg Rompun, 0.2 mg Ace Promazine per animal per dose. Edema was induced in the foot by administration of either PAF or zymosan as follows. PAF (Sigma #P-1402) was freshly prepared for each experiment from a 19.1 mM stock solution stored in chloroform/methanol (9:1) at −20° C. Required volumes were dried down under N2, diluted 1:1000 in a buffer containing 150 mM NaCl, […] Tris pH 7.5, and 0.25% BSA, and sonicated for five minutes. Animals received 50 μl PAF (final dose of 0.96 nmoles) subcutaneously between the hind foot pads, and edema was assessed after 1 hour and again after 2 hours in some experiments. Zymosan A (Sigma #A-8800) was freshly prepared for each experiment as a suspension of 10 mg/ml in PBS. Animals received 50 μl of zymosan (final dose of 500 μg) subcutaneously between the hind foot pads and edema was assessed after 2 hours.
Edema was quantitated by measuring the foot volume immediately prior to administration of PAF or zymosan and at indicated time point post-challenge with PAF or zymosan. Edema is expressed as the increase in foot volume in milliliters. Volume displacement measurements were made on anesthetized animals using a plethysmometer (UGO Basile, model #7150) which measures the displaced water volume of the immersed foot. […] Repeated measurements of the same foot using this technique indicate the precision to be within 5%.
PAF-AH was injected locally between the foot pads, or systematically by IV injection in the tail vein. For local administration rats received 100 μl PAF-AH (4000-6000 U/ml) delivered subcutaneously between the right hind foot pads. Left feet served as controls by administration of 100 μl carrier (buffered salt solution). For systemic administration of PAF-AH, rats received the indicated units of PAF-AH in 300 μL of carrier administered IV in the tail vein. Controls received the appropriate volume of carrier IV in the tail vein.
Rats (N=4) were injected with 100 μl of PAF-AH (4000-6000 U/ml) subcutaneously between the right foot pads. Left feet were injected with 100 μl carrier (buffered salt solution). Four other rats were injected only with carrier. All rats were immediately challenged with PAF via subcutaneous foot injection and foot volumes assessed 1 hour post-challenge. FIG. 4, wherein edema is expressed as average increase in foot volume (ml)±SEM for each treatment group, illustrates that PAF-induced foot edema is blocked by local administration of PAF-AH.
Rats (N=4 per group) were pretreated IV with either PAF-AH (2000 U in 300 μl carrier) or carrier alone, 15 minutes prior to PAF challenge. Edema was assessed 1 and 2 hours after PAF challenge. FIG. 5, wherein edema is expressed as average increase in volume (ml)±SEM for each treatment group, illustrates that IV administration of PAF-AH blocked PAF induced foot edema at one and two hours post challenge. […] Mean volume increase for the PAF-AH treated group at two hours was 0.10 ml±0.08 (SEM), versus 0.56 ml±0.11 for carrier treated controls.
Rats (N=4 per group) were pretreated IV with either PAF-AH (2000 U in 300 μl carrier) or carrier alone. Fifteen minutes after pretreatment, groups received either PAF or zymosan A, and foot volume was assessed after 1 and 2 hours, respectively.
In two separate experiments, groups of rats (N=3 to 4 per group) were pretreated IV with either serial dilutions of PAF-AH or carrier control in a 300 μl volume, 15 minutes prior to PAF challenge. Both feet were challenged with PAF (as described above) and edema was assessed after 1 hour. […]

B1: PAF-AH: Recombinant human plasma platelet-activating factor acetylhydrolase (beginning at Ile42) expressed in E. coli from construct pUC trp AH (protein)
chain: IQVLMAAASFGQTKIPRGNGPYSVGCTDLMFDHTNKGTFLRLYYPSQDNDRLDTLWIPNKEYFWGLSKFLGTHWLMGNILRLLFGSMTTPANWNSPLRPGEKYPLVVFSHGLGAFRTLYSAIGIDLASHGFIVAAVEHRDRSASATYYFKDQSAAEIGDKSWLYLRTLKQEEETHIRNEQVRQRAKECSQALSLILDIDHGKPVKNALDLKFDMEQLKDSIDREKIAVIGHSFGGATVIQTLSEDQRFRCGIALDAWMFPLGDEVYSRIPQPLFFINSEYFQYPANIIKMKKCYSPDKERKMITIRGSVHQNFADFTFATGKIIGHMLKLKGDIDSNVAIDLSNKASLAFLQKHLGLHKDFDQWDCLIEGDDENLIPGTNINTTNQHIMLQNSSGIEKYN
PAF-AH activity, Lysate ([1]; E. coli lysate): 177.7 U/ml/OD600 | PAF-AH activity, Media ([1]; E. coli media): 0.030 U/ml/OD600 | Mean increase in volume (PAF-induced foot edema; 2000 U IV 15 minutes prior to PAF, after 1 hour, ±SEM): 0.08 ± 0.02 mL | Mean volume increase (PAF-induced foot edema; 2000 U IV 15 minutes prior to PAF, at two hours, ±SEM): 0.10 mL | IV dose range found to dramatically reduce PAF mediated inflammation (PAF-induced foot edema; IV injections): 160-2000 U/rat | ID50 dosage (PAF-induced foot edema; IV, summary of dosing studies): 40-80 U/rat | PAF-induced edema compared with PAF antagonists (PAF-induced foot edema; PAF-AH 2000 U IV vs CV3988 or Alprazolam 2 mg IP): reduction in PAF-induced edema beyond that afforded by the established PAF antagonists CV3988 and Alprazolam | Plasma concentration predicted to block PAF-elicited edema (PAF-induced foot edema; calculated from plasma volume for 180-200 gram rats): 25-40 U/ml | Increase in foot volume (PAF-induced foot edema; local s.c. 100 μl PAF-AH (4000-6000 U/ml), 1 hour post PAF challenge, ±SEM): 0.08 mL | Duration of protection from PAF induced edema (PAF-induced foot edema; single 2000 U IV dose): at least 24 hours
